The record followed here is article PMC5687031.

In this test the target is full-length Spc29^2-253 (S. cerevisiae) (UniProt P33419). Description: SAXS.

Chain of full-length Spc29^2-253 (P33419 2-253): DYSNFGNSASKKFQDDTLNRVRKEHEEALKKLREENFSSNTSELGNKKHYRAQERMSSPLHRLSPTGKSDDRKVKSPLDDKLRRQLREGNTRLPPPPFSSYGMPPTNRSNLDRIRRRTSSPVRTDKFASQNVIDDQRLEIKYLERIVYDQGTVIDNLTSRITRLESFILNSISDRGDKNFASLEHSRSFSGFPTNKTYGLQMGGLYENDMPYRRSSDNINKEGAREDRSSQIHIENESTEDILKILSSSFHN

A word on the stoichiometry N: it is the number of molecules, sites or subunits per partner or assembly. “full-length Spc29^2-253 (from UniProt P33419 2-253) (natural protein)”: the stoichiometry N came out at 3 chains.
